Test results from US20240270874A1 (JIANGSU HENGRUI PHARMACEUTICALS, published 2024).

B1: hAb18-8 (antibody, human IgG1, kappa, L234A L235A, V domains shown)
VH: EVQLVQSGAEVKKPGASVKVSCKASGYTFTDYAMHWVRQAPGQRLEWMGVISTYSGTTNYNQNFKGRVTITVDKSASTAYMELSSLRSEDTAVYYCARSGPLDYWGQGTTVTVSS
VL: ENVLTQSPDFQSVTPKEKVTITCRATSSVSSSYLHWYQQKPDQSPKLWIYSTSQLASGVPSRFSGSGSGTDYTLTINSLEAEDAATYYCQQYSGYPLTFGQGTKLEIKR
notes: human IgG1 (L234A, L235A) / kappa
B2: hAb99-13 (antibody, human IgG1, kappa, L234A L235A, V domains shown)
VH: EVQLVQSGAEVKKPGASVKVSCKASGYTFTNYGINWVRQAPGQRLEWMGYIYIGNVDIEYNAKFKGRVTITSDTSASTAYMELSSLRSEDTAVYYCARGRGLGHFDVWGQGTTVTVSS
VL: DIQMTQSPSSLSASVGDRVTITCRASKSISKFLAWFQQKPGKTNKLLIYSGSTLQSGVPSRFSGSGSGTDFTLTISSLQPEDFATYYCQQHNEYPWTFGGGTKVEIKR
notes: as for B1
B3: hAb-23 (antibody, human IgG1, kappa, L234A L235A, V domains shown)
VH: QVQLVQSGAEVKKPGSSVKVSCKASGGTFSSYAISWVRQAPGQGLEWMGGIIPIFGTANYAQKFQGRVTITADESTSTAYMELSSLRSEDTAVYYCARELVSYYYGMDVWGQGTMVTVSS
VL: not shown
notes: from a human natural phage library; human IgG1 (L234A, L235A) / kappa; also called fully human antibody hAb-23

Key:
[1] = target: human KLB&FGFR1c complex on cells (human, UniProt Q86Z14 1-1044; P11362 22-822); assay: cell-based or functional assay
[2] = target: T1, human KLB on CHOK1-hKLB cells (human, UniProt Q86Z14 1-1044); assay: flow cytometry on CHOK1-hKLB cells
T1 construct: whole, on cells; also called human KLB antigen; β-Klotho
T1 sequence (looked up): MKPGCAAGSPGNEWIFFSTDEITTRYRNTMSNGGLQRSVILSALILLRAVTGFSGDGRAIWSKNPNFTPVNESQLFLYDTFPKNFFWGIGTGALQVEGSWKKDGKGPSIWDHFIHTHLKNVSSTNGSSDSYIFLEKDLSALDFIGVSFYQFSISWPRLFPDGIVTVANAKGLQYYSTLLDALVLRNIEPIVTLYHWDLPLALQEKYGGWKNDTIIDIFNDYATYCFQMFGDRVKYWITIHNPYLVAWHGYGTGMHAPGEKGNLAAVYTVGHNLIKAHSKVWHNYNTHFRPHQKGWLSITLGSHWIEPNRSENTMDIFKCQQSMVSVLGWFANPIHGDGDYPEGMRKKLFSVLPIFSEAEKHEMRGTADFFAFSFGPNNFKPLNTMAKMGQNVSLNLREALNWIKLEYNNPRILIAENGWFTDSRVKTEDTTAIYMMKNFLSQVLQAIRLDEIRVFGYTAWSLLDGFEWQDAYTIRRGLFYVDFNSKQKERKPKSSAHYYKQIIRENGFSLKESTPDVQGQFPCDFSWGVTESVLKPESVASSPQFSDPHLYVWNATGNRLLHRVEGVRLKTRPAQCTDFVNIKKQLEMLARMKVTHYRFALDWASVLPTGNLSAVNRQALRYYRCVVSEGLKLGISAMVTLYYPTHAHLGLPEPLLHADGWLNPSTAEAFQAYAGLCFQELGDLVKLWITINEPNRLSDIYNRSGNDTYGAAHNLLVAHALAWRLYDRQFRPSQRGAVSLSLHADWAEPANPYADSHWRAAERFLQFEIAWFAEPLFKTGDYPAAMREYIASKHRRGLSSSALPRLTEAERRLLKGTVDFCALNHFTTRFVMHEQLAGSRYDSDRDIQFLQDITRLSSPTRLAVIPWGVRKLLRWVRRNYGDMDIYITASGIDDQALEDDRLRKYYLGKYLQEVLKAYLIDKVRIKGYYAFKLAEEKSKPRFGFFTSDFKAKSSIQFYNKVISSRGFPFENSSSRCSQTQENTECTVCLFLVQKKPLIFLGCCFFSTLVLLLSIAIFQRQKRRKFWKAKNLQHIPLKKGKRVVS
In short: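 Flow cytometry on CHOK1 cells overexpressing human KLB, 1×10⁵ cells/well, incubated with serially diluted antibodies 1 h at 4 °C. Bound antibody detected with APC-goat anti-human IgG Fc (1:400), 1 h at 4 °C.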

[3] = target: T2, hKLB (R&D, Cat. # 5889-KB) (human, UniProt Q86Z14 53-997, limits assumed); assay: BLI (Octet HTX) competition; KLB+antibody premix on SA sensor; competitor: immobilised Bio-FGF21
T2 construct: bought soluble protein; also called KLB protein; human KLB
T2 sequence (looked up): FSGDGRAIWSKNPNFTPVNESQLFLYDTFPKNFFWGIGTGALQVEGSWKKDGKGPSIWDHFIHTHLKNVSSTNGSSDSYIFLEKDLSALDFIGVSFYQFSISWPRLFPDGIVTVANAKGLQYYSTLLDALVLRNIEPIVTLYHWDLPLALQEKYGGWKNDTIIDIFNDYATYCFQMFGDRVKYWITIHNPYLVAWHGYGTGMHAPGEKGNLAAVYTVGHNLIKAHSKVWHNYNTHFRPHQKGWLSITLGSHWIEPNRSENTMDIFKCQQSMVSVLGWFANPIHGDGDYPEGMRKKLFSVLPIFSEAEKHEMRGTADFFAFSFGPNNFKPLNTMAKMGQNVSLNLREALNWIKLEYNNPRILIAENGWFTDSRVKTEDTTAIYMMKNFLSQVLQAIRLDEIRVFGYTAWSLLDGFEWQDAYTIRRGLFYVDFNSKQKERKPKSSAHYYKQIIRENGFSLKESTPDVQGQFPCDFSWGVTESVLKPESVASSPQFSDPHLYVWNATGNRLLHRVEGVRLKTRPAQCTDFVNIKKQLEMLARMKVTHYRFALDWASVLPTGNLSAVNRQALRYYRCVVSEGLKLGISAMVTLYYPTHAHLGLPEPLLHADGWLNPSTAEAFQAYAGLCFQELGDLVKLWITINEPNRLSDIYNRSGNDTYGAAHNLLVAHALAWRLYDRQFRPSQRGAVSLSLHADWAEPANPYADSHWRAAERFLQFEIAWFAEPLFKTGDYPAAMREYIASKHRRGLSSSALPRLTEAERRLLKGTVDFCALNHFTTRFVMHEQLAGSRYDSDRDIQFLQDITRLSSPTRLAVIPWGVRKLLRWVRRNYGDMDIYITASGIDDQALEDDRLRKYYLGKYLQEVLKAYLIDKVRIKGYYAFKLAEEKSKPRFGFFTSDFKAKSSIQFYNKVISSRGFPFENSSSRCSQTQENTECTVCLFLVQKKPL
Procedure: Bio-FGF21/Bio-FGF19 (obtained by subjecting FGF21 and FGF19 to Biotin labeling with a Biotin Labeling Kit-NH2 (available from DOJINDO Molecular technologies Inc., LK03), wherein FGF21 is set forth in SEQ ID NO: 76 and FGF19 is set forth in SEQ ID NO: 77) was immobilized to an SA sensor (incubation for 80 s) at a concentration of 2 μg/mL, and the sensor was then transferred to a sample well containing KLB (R&D, 5889-KB-1 mg) or containing KLB+antibody premix (pre-incubation for at least 15 min) for 180 s of binding. The reaction signals were detected in real time using the ForteBio OCTET HTX instrument to obtain a binding curve.

Sequence of human KLB&FGFR1c complex on cells (P11362 22-822, one chain of several): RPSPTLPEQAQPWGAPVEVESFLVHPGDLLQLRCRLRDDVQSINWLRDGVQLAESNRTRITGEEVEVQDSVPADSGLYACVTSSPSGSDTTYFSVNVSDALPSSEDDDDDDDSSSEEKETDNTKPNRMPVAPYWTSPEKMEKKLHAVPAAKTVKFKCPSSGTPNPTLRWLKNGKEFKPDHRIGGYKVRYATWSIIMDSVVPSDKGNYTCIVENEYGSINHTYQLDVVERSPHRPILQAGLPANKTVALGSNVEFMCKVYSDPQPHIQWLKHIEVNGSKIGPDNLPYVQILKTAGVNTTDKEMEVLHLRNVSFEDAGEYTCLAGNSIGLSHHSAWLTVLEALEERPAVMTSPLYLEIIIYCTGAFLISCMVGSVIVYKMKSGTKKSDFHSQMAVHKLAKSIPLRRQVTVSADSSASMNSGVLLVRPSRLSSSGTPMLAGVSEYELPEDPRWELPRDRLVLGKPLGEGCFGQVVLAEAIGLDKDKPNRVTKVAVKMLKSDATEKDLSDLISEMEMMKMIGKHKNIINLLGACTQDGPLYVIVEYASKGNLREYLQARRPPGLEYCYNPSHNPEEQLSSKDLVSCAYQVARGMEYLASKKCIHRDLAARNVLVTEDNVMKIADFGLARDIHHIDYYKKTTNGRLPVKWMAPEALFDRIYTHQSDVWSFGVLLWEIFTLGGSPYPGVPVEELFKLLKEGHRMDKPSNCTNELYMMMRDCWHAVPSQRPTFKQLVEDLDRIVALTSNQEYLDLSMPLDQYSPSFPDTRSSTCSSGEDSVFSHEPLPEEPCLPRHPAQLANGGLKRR

| Binder | Activation fold, SRE-Luc2P reporter in HEK293T-hKLB&hFGFR1c cells [1] | EC50 (nM), SRE-Luc2P reporter in HEK293T-hKLB&hFGFR1c cells [1] | EC50 [2] | binding signal of KLB to Bio-FGF21, % of KLB alone [3] |
| --- | --- | --- | --- | --- |
| B1 | 2.29 fold | 5.35 nM | 2.5 nM | 108% |
| B2 | 3.57 fold | 2.62 nM | 0.32 nM | 108% |
| B3 |  |  |  | 113% |
